Source: patent US20240100133A1, “ENZYMATICALLY INACTIVE GRANZYME A AND USES THEREFORE” (Saint Louis University, priority 2022, published 2024)

Legend:
[1] = system: mycobacteria within iMac-WT mouse cells; assay type: cell-based; settings: human GzmA on mouse iMac-WT cells
[2] = system: mycobacteria within iMac CD14KO cells; assay: MGIA in iMac CD14KO cells; assay type: cell-based, mouse
Rab11-FIP1 = assay: Quantitative shotgun proteomics of treated and infected monocytes; assay type: cell-based, human; settings: 200 nM GzmA, infected cells (MOI=3), overnight
Method: Quantitative shotgun proteomics. 1.5e5 human monocytes were either treated or not with 200 nM GzmA, and infected or not with mycobacteria (MOI=3) overnight. After incubation, cells were then washed thrice with PBS, and the pellet lysed using lysis buffer from EasyPep Mini MS Sample Prep Kit (Cat #A40006, Thermo-Fisher, Waltham, MA) supplemented with 1:100 HALT phosphatase inhibitor (Cat #78420, Thermo-Fisher, Waltham, MA). Lysis, reduction/alkylation, protein digestion, and peptide clean-up were performed according to EasyPep recommendations. […] After peptide cleanup, samples were dried using a vacuum centrifuge, and then resuspended in 0.1% formic acid in water for LC-MS analysis. The samples were analyzed on a Q-Exactive orbitrap MS/MS equipped with a nanospray emitter (Thermo Fisher Scientific, Waltham, MA). Nanospray parameters in positive ion mode were as follows: spray voltage, 2.0 KV; capillary temperature, 320° C.; S-lens RF level, 55. […] The MS/MS spectra were analyzed using Sequest HT and MSPepSearch, both integrated in Proteome Discoverer 2.4.1.15 (Thermo Scientific, MA). […] Finally, the results were subjected to statistical analysis using percolator node where the False discovery rate (FDR) was calculated using a decoy database search and only high confidence peptide identifications with FDR 0.01 were included. […]

[3] = system: Protein Disulfide Isomerase A1 (PDIA1); settings: human monocytes infected and treated with GzmA; cited from earlier work
[4] = system: human monocytes infected with BCG-GFP; assay: Phagocytic score, BCG-GFP uptake by monocytes; settings: 2 h of infection with BCG-GFP
Method: Monocytes were treated or not with GzmA, after which BCG-GFP was used to infect cells for 2 hours. Cells were then washed twice with FACS buffer and processed by flow cytometry. The phagocytic score was measured as previously described (Ackerman et al., 2011).

CD14 = biological target: T1, CD14 (Homo sapiens, UniProt P08571); assay: Immunoprecipitation with anti-GzmA, probed for CD14; settings: human monocyte lysates, infected and uninfected cells
T1 sequence (P08571 20-345): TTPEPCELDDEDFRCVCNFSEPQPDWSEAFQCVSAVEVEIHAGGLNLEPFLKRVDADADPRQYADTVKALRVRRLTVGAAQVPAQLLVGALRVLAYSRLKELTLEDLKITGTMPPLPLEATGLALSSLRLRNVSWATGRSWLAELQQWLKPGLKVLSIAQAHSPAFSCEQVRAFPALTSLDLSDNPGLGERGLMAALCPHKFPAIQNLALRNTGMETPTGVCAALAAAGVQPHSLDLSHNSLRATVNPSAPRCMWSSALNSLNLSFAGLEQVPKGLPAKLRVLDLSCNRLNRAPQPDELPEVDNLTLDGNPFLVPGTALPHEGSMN

B1: GzmA-WT: recombinant wild-type human Granzyme A, homodimeric serine protease, purified from HEK293T supernatants (protein)
chain: IIGGNEVTPHSRPYMVLLSLDRKTICAGALIAKDWVLTAAHCNLNKRSQVILGAHSITREEPTKQIMLVKKEFPYPCYDPATREGDLKLLQLMEKAKINKYVTILHLPKKGDDVKPGTMCQVAGWGRTHNSASWSDTLREVNITIIDRKVCNDRNHYNFNPVIGMNMVCAGSLRGGRDSCNGDSGSPLLCEGVFRGVTSFGLENKCGDPRGPGVYILLSKKHLNWIIMTIKGAV
modifications: left off: small tags and cut ends
notes: recombinant wild-type human Granzyme A, homodimeric serine protease, purified from HEK293T supernatants
Which “inhibition of mycobacterial growth in iMac-WT cells” value [1] does the source give for B1 here?
The value was “modestly inhibit mycobacterial growth”.

What about the “inhibition of intracellular mycobacterial growth in CD14-deficient iMac cells” value [2] of the same molecule?
The value was “incapable of inhibiting intracellular mycobacterial growth”.

What about the Rab11-FIP1 protein level (Rab11-FIP1) of the same molecule?
The Rab11-FIP1 protein level was “upregulated”.

And the “PDIA1 upregulation compared to control” value [3]?
Its value is 90%.

And the phagocytic score [4]?
The phagocytic score was “higher phagocytic score compared to untreated cells”.

And the “binding to CD14 (immunoprecipitation)” value (CD14)?
The value was “bound to CD14”.
